From PMC5487423 (2017) come the findings set out here.

Changes are numbered by the printed parent chain.

Common to all, as to experiment: BLI
(In general: In BLI a coated tip is dipped into the sample, and binding shifts an interference pattern.)

In one test the target is T1, CCL4L1_HUMAN (Homo sapiens).
T1 chain: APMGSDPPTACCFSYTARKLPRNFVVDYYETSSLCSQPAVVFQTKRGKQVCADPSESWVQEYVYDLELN

The target of a further test is T2, CCL8 (human, UniProt P80075 24-99).
T2 chain: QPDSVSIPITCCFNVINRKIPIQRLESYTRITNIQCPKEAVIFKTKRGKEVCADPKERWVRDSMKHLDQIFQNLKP

For another test, the target named is T3, CCL1 (human, UniProt P22362 24-96).
T3 chain: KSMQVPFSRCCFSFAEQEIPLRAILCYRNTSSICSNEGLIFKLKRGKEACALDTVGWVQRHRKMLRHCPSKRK

The target of another test is T4, CCL5 (human, UniProt P13501 24-91).
T4 chain: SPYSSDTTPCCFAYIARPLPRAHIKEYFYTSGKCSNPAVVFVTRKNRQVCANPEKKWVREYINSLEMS

Another test has as its target T5, CCL24_HUMAN (Homo sapiens).
T5 chain: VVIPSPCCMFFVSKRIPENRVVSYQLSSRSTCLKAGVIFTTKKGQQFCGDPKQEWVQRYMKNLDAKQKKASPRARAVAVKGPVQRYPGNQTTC

B1: P983_AMBCA, purified, C-terminal StrepII-8xHis tag (natural protein)
chain: ETGEDTGTEDDFDYGNTGCPFPVLGNYKSNMTKPVGCKNKCGSGYEVLNDTTPCYVIDQKVFNNMVPLRQYSKCPLGFCENGECKPNDQAEDCYKGREEQKGGGGGSGGGGSGGASAWSHPQFEKLEHHHHHHHH
A word on the Kd: it is a measure of binding affinity in units of concentration. B1 gave a Kd with CCL4L1_HUMAN of 2.9 nM.

B2: P1183_AMBTR, purified, C-terminal StrepII-8xHis tag (natural protein)
chain: ETGEAPKDDFEYDGGCPFVVLDNGTHVKPAGCSHLCNGAPETLDNIECYNVTEEVAKRMTPGIPYACWLGWCSKGECKRDNRTEVCYRGSEEE
Turning to B2, the Kd in the test with CCL8 was determined as 1100 nM.

B3: P974_AMBCA, purified, C-terminal StrepII-8xHis tag (natural protein)
chain: ETGENTQQEEQDYDYGTDTCPFPVLANKTNKAKFVGCHQKCNGGDQKLTDGTACYVVERKVWDRMTPMLWYECPLGECKNGVCEDLRKKEDCRKGNGEEK
In the case of B3, the Kd with CCL1 was 71 nM; with CCL8, 2.6 nM.

B4: P546_AMBCA, purified, C-terminal StrepII-8xHis tag (natural protein)
chain: B3 chain with Q11E, E72S, D91E
As to B4, the Kd in the test with CCL4L1_HUMAN was 8.9 nM; in the test with CCL8, 1.3 nM.

B5: P467_RHIPU, purified, C-terminal StrepII-8xHis tag (natural protein)
chain: ETGAEKSLDSDSSGEDYELWTQGCPFLVAENRTGFGTTVSCQHNCNGAIEKVPEGEPCYTIGEDGLGRMKLNLPYNCSLGECSGGVCVPNGRSDVCFKRTWEENNKAMA
On to B5, for which the Kd with CCL4L1_HUMAN turned out to be 4.7 nM; in the test with CCL5, 7.7 nM; with CCL1 it was 53 nM.

B6: P985_AMBPA, purified, C-terminal StrepII-8xHis tag (natural protein)
chain: ETGDEESEELGASTDVDYEELDANCTCPAPALTSTRNNKHYPLGCIYNCSSYNCTIPDGTPCYVLTLGEVKEHLQIGSTVPNCTCGLCRNGTCVSNGTVEECFAVEEIEET
With B6, the figures for the Kd in the test with CCL4L1_HUMAN, with CCL24_HUMAN and with CCL1 were 21 nM, 41 nM and 8.3 nM, respectively.
